The target of assay [1] is Human Bcl-2 lacking 34 amino acids at the COOH terminus (human, UniProt P10415 1-205). Briefly: co-IP.
Assay [2] deals with His-tagged human Bcl-xL lacking 24 amino acids at the COOH terminus (human, UniProt Q07817-1 1-209). The experiment in a line: co-IP.
Chain of His-tagged human Bcl-xL lacking 24 amino acids at the COOH terminus (Q07817 1-209): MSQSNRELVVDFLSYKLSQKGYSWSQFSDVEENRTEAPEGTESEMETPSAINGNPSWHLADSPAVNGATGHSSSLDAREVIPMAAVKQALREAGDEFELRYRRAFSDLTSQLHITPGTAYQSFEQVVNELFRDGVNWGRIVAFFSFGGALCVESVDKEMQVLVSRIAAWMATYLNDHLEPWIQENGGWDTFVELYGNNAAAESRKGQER

Chain of Human Bcl-2 lacking 34 amino acids at the COOH terminus (P10415 1-205): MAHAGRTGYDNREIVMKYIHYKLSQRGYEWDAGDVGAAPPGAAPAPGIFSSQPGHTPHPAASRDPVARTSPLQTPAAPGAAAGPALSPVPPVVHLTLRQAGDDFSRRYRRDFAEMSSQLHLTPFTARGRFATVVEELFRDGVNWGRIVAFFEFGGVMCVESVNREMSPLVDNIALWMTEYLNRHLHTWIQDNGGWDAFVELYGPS

B1: His-tagged Bid (recombinant wild-type Bid) (natural protein)
chain: MDSEVSNGSGLGAEHITDLLVFGFLQSSGCTRQELEVLGRELPVQAYWEADLEDELQTDGSQASRSFNQGRIEPDSESQEEIIHNIARHLAQIGDEMDHNIQPTLVRQLAAQFMNGSLSEEDKRNCLAKALDEVKTAFPRDMENDKAMLIMTMLLAKKVASHAPSLLRDVFHTTVNFINQNLFSYVRNLVRNEMD
On to B1, for which the binding result in assay [1] and in assay [2] was “binds” in each case.

B2: BidmIII-3 (G94→ A) (natural protein)
chain: MDSEVSNGSGLGAEHITDLLVFGFLQSSGCTRQELEVLGRELPVQAYWEADLEDELQTDGSQASRSFNQGRIEPDSESQEEIIHNIARHLAQIADEMDHNIQPTLVRQLAAQFMNGSLSEEDKRNCLAKALDEVKTAFPRDMENDKAMLIMTMLLAKKVASHAPSLLRDVFHTTVNFINQNLFSYVRNLVRNEMD
As for B2, the binding result in assay [1] and in assay [2] was “binds” throughout.

These data come from PMC2148190 (The Journal of Cell Biology, 1999).
